Data taken from PMC11927175, “Global profiling of CPL3-mediated alternative splicing reveals regulatory mechanisms of DGK5 in plant immunity and phosphatidic acid homeostasis” (Genome Biology, 2025).

Assays:
[1] = target: T1, six histidine-tagged DGK5β (…OL KINASE 5, constitutive full-length isoform) (Arabidopsis thaliana, UniProt Q9C5E5 1-509); assay: pull-down; GST-BIK1 immobilised on glutathione agarose beads, blocked with BSA, incubated with 2 μg HIS-DGK5β or HIS-DGK5α in 300 μl incubation buffer (20 mM Tris-HCl pH 7.5, 100 mM NaCl, 0.1 mM EDTA, 0.2% Triton X-100) at 4 °C for 1 h; washed with 300 mM NaCl buffer; immunoblot with α-HIS and α-GST; settings: both partners purified
T1 construct: …OL KINASE 5, isoform DGK5β, Arabidopsis thaliana, AT2G20900; printed size 57.4 kDa; Ser506 lies in the CBD; also called HIS-DGK5β; source: E. coli BL21, purified (Ni-NTA agarose)
T1 sequence (looked up): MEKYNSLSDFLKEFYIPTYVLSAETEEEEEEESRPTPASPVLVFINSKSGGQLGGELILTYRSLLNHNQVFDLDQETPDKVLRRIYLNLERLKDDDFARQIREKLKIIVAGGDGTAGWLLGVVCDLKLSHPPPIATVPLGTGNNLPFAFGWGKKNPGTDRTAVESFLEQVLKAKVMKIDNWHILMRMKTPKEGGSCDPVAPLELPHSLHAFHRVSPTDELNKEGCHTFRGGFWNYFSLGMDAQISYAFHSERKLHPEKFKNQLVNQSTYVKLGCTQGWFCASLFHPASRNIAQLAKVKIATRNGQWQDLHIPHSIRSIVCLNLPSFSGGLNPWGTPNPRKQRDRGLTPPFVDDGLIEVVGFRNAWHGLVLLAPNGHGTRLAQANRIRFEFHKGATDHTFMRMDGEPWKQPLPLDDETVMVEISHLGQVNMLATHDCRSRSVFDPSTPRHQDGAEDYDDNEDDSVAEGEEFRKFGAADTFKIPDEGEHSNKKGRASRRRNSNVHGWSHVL

[2] = target: T2, glutathione S-transferase (GST)-tagged BIK1 (BOTRYTIS-INDUCED KINASE 1) (Arabidopsis thaliana (Mouse-ear cress), UniProt O48814); assay: GST pull-down
T2 chain: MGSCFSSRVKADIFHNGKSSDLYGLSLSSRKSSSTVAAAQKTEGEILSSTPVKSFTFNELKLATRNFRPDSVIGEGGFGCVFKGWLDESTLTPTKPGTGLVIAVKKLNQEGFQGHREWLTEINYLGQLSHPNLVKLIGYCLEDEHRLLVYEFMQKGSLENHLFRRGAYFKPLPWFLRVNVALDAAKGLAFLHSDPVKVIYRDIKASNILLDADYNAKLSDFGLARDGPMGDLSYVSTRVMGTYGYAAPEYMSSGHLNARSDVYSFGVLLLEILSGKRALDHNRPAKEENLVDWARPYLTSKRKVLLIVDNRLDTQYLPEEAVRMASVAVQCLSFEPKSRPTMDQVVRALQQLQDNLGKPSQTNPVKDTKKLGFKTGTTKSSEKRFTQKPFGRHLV

B1: glutathione S-transferase (GST)-tagged BIK1 (BOTRYTIS-INDUCED KINASE 1) (enzyme, Arabidopsis thaliana, UniProt O48814 1-395, looked up)
chain: MGSCFSSRVKADIFHNGKSSDLYGLSLSSRKSSSTVAAAQKTEGEILSSTPVKSFTFNELKLATRNFRPDSVIGEGGFGCVFKGWLDESTLTPTKPGTGLVIAVKKLNQEGFQGHREWLTEINYLGQLSHPNLVKLIGYCLEDEHRLLVYEFMQKGSLENHLFRRGAYFKPLPWFLRVNVALDAAKGLAFLHSDPVKVIYRDIKASNILLDADYNAKLSDFGLARDGPMGDLSYVSTRVMGTYGYAAPEYMSSGHLNARSDVYSFGVLLLEILSGKRALDHNRPAKEENLVDWARPYLTSKRKVLLIVDNRLDTQYLPEEAVRMASVAVQCLSFEPKSRPTMDQVVRALQQLQDNLGKPSQTNPVKDTKKLGFKTGTTKSSEKRFTQKPFGRHLV
notes: BOTRYTIS-INDUCED KINASE 1 (BIK1), receptor-like cytoplasmic kinase, Arabidopsis thaliana, AT2G39660; also called GST-BIK1; source: E. coli BL21, purified (glutathione agarose)
[1]
  binding result: binds

B2: six histidine-tagged DGK5β (…OL KINASE 5, constitutive full-length isoform) (protein)
chain: MEKYNSLSDFLKEFYIPTYVLSAETEEEEEEESRPTPASPVLVFINSKSGGQLGGELILTYRSLLNHNQVFDLDQETPDKVLRRIYLNLERLKDDDFARQIREKLKIIVAGGDGTAGWLLGVVCDLKLSHPPPIATVPLGTGNNLPFAFGWGKKNPGTDRTAVESFLEQVLKAKVMKIDNWHILMRMKTPKEGGSCDPVAPLELPHSLHAFHRVSPTDELNKEGCHTFRGGFWNYFSLGMDAQISYAFHSERKLHPEKFKNQLVNQSTYVKLGCTQGWFCASLFHPASRNIAQLAKVKIATRNGQWQDLHIPHSIRSIVCLNLPSFSGGLNPWGTPNPRKQRDRGLTPPFVDDGLIEVVGFRNAWHGLVLLAPNGHGTRLAQANRIRFEFHKGATDHTFMRMDGEPWKQPLPLDDETVMVEISHLGQVNMLATHDCRSRSVFDPSTPRHQDGAEDYDDNEDDSVAEGEEFRKFGAADTFKIPDEGEHSNKKGRASRRRNSNVHGWSHVL
[2]
  binding result: binds
